No end group written: not given here.
B1: LPQ phage (M13 phage of the PhD-12 library displaying …) (peptide)
peptide: LPQRAFWVPPIV
modifications: not fully specified (C-terminus)
B2: MPL phage (M13 phage of the PhD-12 library displaying …) (peptide)
peptide: MPLPQPSHLPLL
modifications: not fully specified (C-terminus)
B3: WPT phage displaying … (M13 phage of the PhD-12 library) (peptide)
peptide: WPTSPWSSRDWS
modifications: not fully specified (C-terminus)
B4: WPV phage (M13 phage of the PhD-12 library displaying …) (peptide)
peptide: WPVRPWMPGPVV
modifications: not fully specified (C-terminus)
B5: WPT phage displaying … (M13 phage of the PhD-12 library) (peptide)
peptide: WPTSPWLEREPA
modifications: not fully specified (C-terminus)

Columns and labels:
WiDr cells = test: Phage binding specificity test (output/input ratio); parameters: species or system human; settings: fifth pool, PhD-C7C library
P815MUC1 cells = test: Competition of phage binding by synthetic peptides; parameters: species or system mouse; settings: for inhibition of WPY phage binding: increasing amounts of peptide (WPY 0.1, 10 and 500 μM)
Protocol: Synthetic peptides corresponding to the WPY and LPQ sequences of the previously selected phages (second and fourth sequences of Table 3) were synthetized (Neosystem, strasbourg, France). Increasing amounts of WPY peptide (0.1, 10 and 500 μM) and LPQ peptide (0.1, 10 and 1000 μM) or control peptides GHL and SGR (a non-selected phage from the PhD-C7C library) were diluted in a total volume of 1 ml of PBS-BSA1 % with 5.10^6 P815MUC1 cells and incubated for 1 hour at 4° C. under slight agitation. 1.10^10 WPY or LPQ phages in 200 μl of PBS-1% BSA were added and incubated with the cells and the peptide for two hours at 4° C. under slight agitation. Cells were then washed and bound phages eluted and titered following the same protocol as for the selections.

[1] = biological target: coxsackievirus-adenovirus receptor (CAR) on cells (UniProt P78310); test: cell-based or functional assay
Chain of UniProt P78310 (P78310 20-365 limits assumed): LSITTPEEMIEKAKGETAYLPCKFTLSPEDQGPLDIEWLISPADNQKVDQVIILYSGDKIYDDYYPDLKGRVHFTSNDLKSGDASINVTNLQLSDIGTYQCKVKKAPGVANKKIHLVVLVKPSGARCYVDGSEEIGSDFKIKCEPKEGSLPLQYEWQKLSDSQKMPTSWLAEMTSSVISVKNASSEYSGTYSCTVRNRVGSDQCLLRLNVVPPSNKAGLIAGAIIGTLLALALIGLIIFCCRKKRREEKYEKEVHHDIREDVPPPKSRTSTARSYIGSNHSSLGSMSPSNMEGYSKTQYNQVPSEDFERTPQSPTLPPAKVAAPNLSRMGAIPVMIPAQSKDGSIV

[2] = biological target: MUC1 as expressed on P815MUC1 cells (P815 mouse mastocytoma cells transfected with MUC1 and Neomycin expression cassettes) (UniProt P15941); test: phage titration on MUC1-transfected against control-transfected P815 cells (FIG. 4)
[3] = biological target: MUC1 as expressed on P815MUC1 cells (P815 mouse mastocytoma cells transfected with MUC1 and Neomycin expression cassettes) (UniProt P15941); test: phage titration on P815MUC1 cells (1.5e11 phages, 1e7 cells; FIG. 4); the same is said of MUC1-negative P815pAG60 cells
[4] = increasing amounts of peptide (LPQ 0.1, 10 and 1000 μM), 1.10^10 phages, 4° C.

| Molecule | fold binding to P815MUC1 cells over P815pAG60 cells [2] | fold higher affinity than the control phages (M13, GHL) [3] | also measured |
| --- | --- | --- | --- |
| CLPSTRQTC [CLPSTRWTC] |  |  | binding to WiDr cells compared to the subtractor 293 cells (WiDr cells): specific binding |
| GHLIPLRQPSHQ [GHL used as control peptide and non-selected PhD12 control phage, reference compound] |  |  | inhibition of LPQ phage binding (P815MUC1 cells; [4]): did not significatively inhibit; inhibition of WPY phage binding (P815MUC1 cells; 1.10^10 phages, 4° C.): did not significatively inhibit |
| CWPYPSHFC |  |  | inhibition of LPQ phage binding (P815MUC1 cells; 500 μM concentration of non-corresponding peptide): did not significatively inhibit; inhibition of WPY phage binding (P815MUC1 cells; 1.10^10 phages, 4° C.): inhibit in a dose-dependant manner |
| Adenovirus type 5 wild-type fiber protein, as carried by the Ad-fbwt virus (from UniProt P11818 1-581) |  |  | inhibition of infection of 293 and HeLa cells (β-galactosidase activity, % of control) by soluble knob at 10 µg/ml [1]: > 90% |
| LPQRAFWVPPIV |  |  | inhibition of LPQ phage binding (P815MUC1 cells; [4]): inhibit in a dose-dependant manner |
| B1 | > 3 times | > 100 fold |  |
| B2 | > 3 times | > 100 fold |  |
| B3 | > 3 times | > 100 fold |  |
| B4 | > 3 times | > 100 fold |  |
| B5 | > 3 times | > 100 fold |  |

From patent publication US20040102382A1, “Targeting peptides” (priority 2002, published 2004)
